Assay results reported in paper PMC11344848, “Proximity-driven site-specific cyclization of phage-displayed peptides” (Nature Communications, 2024).
Positions of bridges follow the written chain, without caps; N, C: chain ends. No end group written: not given here. CCA = cyclopropenone-chloroacetamide linker between the two cysteines

Molecular target: T1, streptavidin (UniProt P22629 25-183)
T1 construct: streptavidin; Plate-coated in the ELISA; covalently immobilised by amine coupling to a CM5 chip in SPR; Commercial streptavidin is often a truncated core form; source: bought: Pierce streptavidin-coated 96 well plate (Thermo Fisher Scientific) for the phage ELISA
T1 sequence (P22629 25-183): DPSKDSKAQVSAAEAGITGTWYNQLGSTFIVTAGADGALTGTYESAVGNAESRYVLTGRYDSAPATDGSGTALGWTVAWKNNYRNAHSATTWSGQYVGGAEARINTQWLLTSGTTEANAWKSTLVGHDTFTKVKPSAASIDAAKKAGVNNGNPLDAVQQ
Assay: SPR; Biacore 8K, 25 °C; streptavidin amine-coupled to a CM5 chip; peptides 4.1 – 9000 nM in HBS-EP+ pH 7.4 at 30 µL/min, 180 s association, 600 s dissociation
Details: both partners purified

CPINIFHPPPDC (linker 1-12 via CCA) [synthetic peptide Str1-CCA]
Kd: 340 nM
